This is an account of results in article PMC7038996.

Where a chain is given by its changes, count along the chain named. Read-outs that look alike come from different tables or passages of the source.

Series [1] concerns the target T1, GST-APE1 WT (Xenopus laevis, UniProt Q6IP62 1-316).
T1 sequence: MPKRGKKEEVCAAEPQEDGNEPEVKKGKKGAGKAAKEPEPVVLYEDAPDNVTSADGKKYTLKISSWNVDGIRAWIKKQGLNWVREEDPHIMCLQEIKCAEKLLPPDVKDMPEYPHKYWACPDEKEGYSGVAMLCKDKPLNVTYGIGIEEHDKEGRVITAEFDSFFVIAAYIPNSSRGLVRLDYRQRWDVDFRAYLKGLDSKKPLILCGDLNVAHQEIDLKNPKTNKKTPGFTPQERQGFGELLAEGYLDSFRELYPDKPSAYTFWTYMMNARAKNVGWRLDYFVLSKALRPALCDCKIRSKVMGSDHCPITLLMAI
Put plainly: EMSA. In general terms: In EMSA bound probe runs differently from free probe, usually more slowly.

In a further series the target is T2, GST-APE1 DA (Xenopus laevis, UniProt Q6IP62 1-316, D306A).
T2 sequence: T1 sequence with D306A
Put plainly: EMSA.

Another series has as its target T3, GST-APE1 F264L (Xenopus laevis, UniProt Q6IP62 1-316, F264L).
T3 sequence: T1 sequence with F264L
Description: EMSA.

For the next series, the target named is T4, GST-APE1 CA (Xenopus laevis, UniProt Q6IP62 1-316, C92A;C98A).
T4 sequence: T1 sequence with C92A, C98A
Description: EMSA.

The target in a further series is T5, GST-APE1 F264Y (Xenopus laevis, UniProt Q6IP62 1-316, F264Y).
T5 sequence: T1 sequence with F264Y
Put plainly: EMSA.

For series [2], the target named is T1, GST-APE1 WT. Description: EMSA. This is another data set of the same source.
The target of another series is T6, Myc-APE2 (UniProt Q6DDT4 1-517).
T6 sequence: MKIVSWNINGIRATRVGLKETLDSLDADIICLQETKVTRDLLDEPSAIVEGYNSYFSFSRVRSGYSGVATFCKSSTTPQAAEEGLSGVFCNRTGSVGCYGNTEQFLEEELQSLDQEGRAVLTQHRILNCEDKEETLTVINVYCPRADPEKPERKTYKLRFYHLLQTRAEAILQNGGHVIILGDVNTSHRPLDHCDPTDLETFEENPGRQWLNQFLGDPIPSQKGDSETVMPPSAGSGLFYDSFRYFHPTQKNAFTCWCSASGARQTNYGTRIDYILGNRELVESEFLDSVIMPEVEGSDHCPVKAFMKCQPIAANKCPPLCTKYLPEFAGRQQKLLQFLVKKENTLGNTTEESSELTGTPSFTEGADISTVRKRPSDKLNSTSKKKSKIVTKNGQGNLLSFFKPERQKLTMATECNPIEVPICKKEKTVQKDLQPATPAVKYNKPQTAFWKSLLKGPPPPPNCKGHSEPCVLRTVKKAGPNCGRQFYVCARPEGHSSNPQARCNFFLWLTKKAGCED
Put plainly: pull-down.

B1: dsDNA-SSB (dsDNA)
DNA 1: TCGGTACCCGGGGATCCTCTAGAGTCGACC
DNA 2: TGCAGGCATGCAAGCTTGGCGTAATCATGGTCATAGCTGT
DNA 3: ACAGCTATGACCATGATTACGCCAAGCTTGCATGCCTGCAGGTCGACTCTAGAGGATCCCCGGGTACCGA
modifications: nick between nt 30 and 31 of S1 (Nt.BstNBI, …^); CIP-treated
Turning to B1, the binding result was “binds” with GST-APE1 WT [1]; “no binding” with GST-APE1 DA; “no binding” in the series with GST-APE1 F264L; “no binding” with GST-APE1 CA; “no binding” with GST-APE1 F264Y.

B2: dsDNA (70 bp) (dsDNA)
DNA 1: TCGGTACCCGGGGATCCTCTAGAGTCGACCTGCAGGCATGCAAGCTTGGCGTAATCATGGTCATAGCTGT
DNA 2: B1 DNA 3
With B2, the binding result in the series with GST-APE1 WT [2] is recorded as “no binding”.

B3: biotin-dsDNA (dsDNA)
DNA 1: B2 DNA 1
DNA 2: B1 DNA 3
Consider B3, for which the binding result in the series with Myc-APE2 is reported as “no binding”.

B4: biotin-dsDNA-SSB (dsDNA)
DNA 1: B1 DNA 1
DNA 2: B1 DNA 2
DNA 3: B1 DNA 3
modifications: nick by Nt.BstNBI; CIP-treated
In the case of B4, the binding result with Myc-APE2 is given as “binds”.
